Test results from the Human Domainome abundance scans (Beltran et al. 2025).
± gives the uncertainty stated by the source.

B1: Retinoic acid receptor RXR-alpha, residues 132 to 208; numbered along this chain, P19793 (parent)
chain: KHICAICGDRSSGKHYGVYSCEGCKGFFKRTVRKDLTYTCRDNKDCLIDKRQRNRCQYCRYQKCLAMGMKREAVQEE

Variants of: B1
Experiment: abundance fitness (aPCA) (normalised: wild type 0, dead -1); higher = more abundant; growth selection in yeast, the domain comes from the species named
Conditions: Homo sapiens

First: KHICAICGDRSSGKHYGVYSCEGCKGFFKRTVRKDLTYTCRDNKDCLIDKRQRNRCQYCRYQKCLAMGMKIEAVQEE [R71I]
Second: KHICAICGDRSSGKHYGVYSCESCKGFFKRTVRKDLTYTCRDNKDCLIDKRQRNRCQYCRYQKCLAMGMKREAVQEE [G23S]
The abundance fitness of the first is higher: 0.028 ± 0.033 for the first, -0.288 ± 0.027 for the second.

First: KHICAICGDRSSGKHYGVYSCEHCKGFFKRTVRKDLTYTCRDNKDCLIDKRQRNRCQYCRYQKCLAMGMKREAVQEE [G23H]
Second: KHICAICGDRSSGKHYGVYSCETCKGFFKRTVRKDLTYTCRDNKDCLIDKRQRNRCQYCRYQKCLAMGMKREAVQEE [G23T]
The abundance fitness of the first is higher: -0.089 ± 0.032 for the first, -0.256 ± 0.03 for the second.

Going from KHICAICGDRSSGKHYGVYSCENCKGFFKRTVRKDLTYTCRDNKDCLIDKRQRNRCQYCRYQKCLAMGMKREAVQEE [G23N] to KHICAICGDRSSGKHYGVYSCEGCKGFFKRTVRKDLTYTCRDNKDCQIDKRQRNRCQYCRYQKCLAMGMKREAVQEE [L47Q], the abundance fitness rises from -0.269 ± 0.039 to -0.095 ± 0.071.

KHICAICGDRSSGKHYGVYSCEGCKGFFKRTVRKDLTYTTRDNKDCLIDKRQRNRCQYCRYQKCLAMGMKREAVQEE [C40T] and KHICAICGDRSSGKHYGVYSCEGCKGFFKRTVRKDLTYTARDNKDCLIDKRQRNRCQYCRYQKCLAMGMKREAVQEE [C40A] are within error of each other in abundance fitness: -0.643 ± 0.082 for the first, -0.602 ± 0.054 for the second.

Compared with KHICAICGDRSSGKHYGVYLCEGCKGFFKRTVRKDLTYTCRDNKDCLIDKRQRNRCQYCRYQKCLAMGMKREAVQEE [S20L], KHICAICGDRSSGKHYGVYMCEGCKGFFKRTVRKDLTYTCRDNKDCLIDKRQRNRCQYCRYQKCLAMGMKREAVQEE [S20M] is lower in abundance fitness: 0.05 ± 0.026 for the first, -0.027 ± 0.035 for the second.

Going from KHICAICGDRSSGKHYGVYCCEGCKGFFKRTVRKDLTYTCRDNKDCLIDKRQRNRCQYCRYQKCLAMGMKREAVQEE [S20C] to KHICAICGDRSSGKHYGVYSCEGCKPFFKRTVRKDLTYTCRDNKDCLIDKRQRNRCQYCRYQKCLAMGMKREAVQEE [G26P], the abundance fitness falls from 0.049 ± 0.031 to -0.503 ± 0.058.

KHICAICGDRSSGKHYGVYSCEGCKGFFKRTVRKDLTYTCRDNNDCLIDKRQRNRCQYCRYQKCLAMGMKREAVQEE [K44N] and KHICAICGDRSSGKHYGVYSCEGCKGFFKRTVRKDLTYTCRDNRDCLIDKRQRNRCQYCRYQKCLAMGMKREAVQEE [K44R] are within error of each other in abundance fitness: 0.025 ± 0.059 for the first, -0.019 ± 0.03 for the second.

First: KHICAICGDRSSGKHYGVYSCEGCKGFFKRTVRKDLTYTCRDNKDCLIDKRQRNRCQYCRYQKCMAMGMKREAVQEE [L65M]
Second: KHICAICGDRPSGKHYGVYSCEGCKGFFKRTVRKDLTYTCRDNKDCLIDKRQRNRCQYCRYQKCLAMGMKREAVQEE [S11P]
The abundance fitness of the first is lower: -0.058 ± 0.041 for the first, 0.072 ± 0.03 for the second.

Compared with KHICAICGDRSSGKHYGVYSCEGCKGFFKRTVRKDLTYTCRDNKDCLIDKRQRNRCQYCRYQKCLAMGLKREAVQEE [M69L], KHICAICGDRSSGKHYGVYSCEGCKGFFKRTVRKDLTYTCRDNKDCLIDKRQRNRCQYCRYQKCLAMGKKREAVQEE [M69K] is lower in abundance fitness: -0.036 ± 0.028 for the first, -0.482 ± 0.074 for the second.

First: KHICAICGDRSSGKHYGVYSCEGCKGFFKRTVRKDLTYTCRDNKDKLIDKRQRNRCQYCRYQKCLAMGMKREAVQEE [C46K]
Second: KHFCAICGDRSSGKHYGVYSCEGCKGFFKRTVRKDLTYTCRDNKDCLIDKRQRNRCQYCRYQKCLAMGMKREAVQEE [I3F]
The abundance fitness of the first is lower: -0.207 ± 0.052 for the first, -0.06 ± 0.04 for the second.

KHIAAICGDRSSGKHYGVYSCEGCKGFFKRTVRKDLTYTCRDNKDCLIDKRQRNRCQYCRYQKCLAMGMKREAVQEE [C4A] and KHIVAICGDRSSGKHYGVYSCEGCKGFFKRTVRKDLTYTCRDNKDCLIDKRQRNRCQYCRYQKCLAMGMKREAVQEE [C4V] are within error of each other in abundance fitness: -0.895 ± 0.063 for the first, -1.03 ± 0.086 for the second.

MHICAICGDRSSGKHYGVYSCEGCKGFFKRTVRKDLTYTCRDNKDCLIDKRQRNRCQYCRYQKCLAMGMKREAVQEE [K1M] and NHICAICGDRSSGKHYGVYSCEGCKGFFKRTVRKDLTYTCRDNKDCLIDKRQRNRCQYCRYQKCLAMGMKREAVQEE [K1N] are within error of each other in abundance fitness: -0.067 ± 0.05 for the first, -0.024 ± 0.045 for the second.

Compared with EHICAICGDRSSGKHYGVYSCEGCKGFFKRTVRKDLTYTCRDNKDCLIDKRQRNRCQYCRYQKCLAMGMKREAVQEE [K1E], THICAICGDRSSGKHYGVYSCEGCKGFFKRTVRKDLTYTCRDNKDCLIDKRQRNRCQYCRYQKCLAMGMKREAVQEE [K1T] is lower in abundance fitness: -0.117 ± 0.058 for the first, -0.435 ± 0.051 for the second.

KHICAICGDRSSGKHYGVYSCEGCKGFFKRTVRKDLTYTCRDNKDCLIDKRQRNRCQYCRYQKCLAMGMNREAVQEE [K70N] and KHICAICGDRSSGKHYGVYSCEGCKGFFKRTVRKDLTYTCRDNKDCLIDKRQRNRCQYCRYQKCLAMGMWREAVQEE [K70W] are within error of each other in abundance fitness: 0.061 ± 0.079 for the first, -0.005 ± 0.038 for the second.

KHICAICGDRSSGKHQGVYSCEGCKGFFKRTVRKDLTYTCRDNKDCLIDKRQRNRCQYCRYQKCLAMGMKREAVQEE [Y16Q] and KHICAICGDRSSGKHYGVYSCEGCKGFFKRTVRKDLTYTCRDNKDCLINKRQRNRCQYCRYQKCLAMGMKREAVQEE [D49N] are within error of each other in abundance fitness: 0.063 ± 0.03 for the first, 0.048 ± 0.065 for the second.

Compared with KHICAICGDRSSGKHYGVYSCEGCKGFFKRTVRKDLTYTCRDNKDCLIGKRQRNRCQYCRYQKCLAMGMKREAVQEE [D49G], KHICAKCGDRSSGKHYGVYSCEGCKGFFKRTVRKDLTYTCRDNKDCLIDKRQRNRCQYCRYQKCLAMGMKREAVQEE [I6K] is lower in abundance fitness: 0.07 ± 0.035 for the first, -0.881 ± 0.098 for the second.

KHICAICGDRSSGKHYGVYSCEGCKGFFKRTVRKDLTYTCRDNKDCLIDKRQRNRCQYCRYQKCLAMGMKRELVQEE [A73L] and KHICAICGDRSSGKHYGVYSCEGCKGFFKRTVRKDLTYACRDNKDCLIDKRQRNRCQYCRYQKCLAMGMKREAVQEE [T39A] are within error of each other in abundance fitness: -0.027 ± 0.026 for the first, -0.015 ± 0.037 for the second.

KRICAICGDRSSGKHYGVYSCEGCKGFFKRTVRKDLTYTCRDNKDCLIDKRQRNRCQYCRYQKCLAMGMKREAVQEE [H2R] and KHICAICGDRSSGKHYGVYSCEGCKGFFKRTVRKDLTYTCRDNKDCLIDKRQRNRCQYCRYQKCLAMGMKRFAVQEE [E72F] are within error of each other in abundance fitness: -0.101 ± 0.032 for the first, -0.19 ± 0.17 for the second.
